According to paper PMC6639331, “Reconstitution of recombinant human CCR4-NOT reveals molecular insights into regulated deadenylation”:

Assays:
[1] = target: T1, CCR4-NOT FULL (CCR4a E240A:CAF1 D40A) (Homo sapiens, UniProt A5YKK6;Q9NZN8;O75175;Q92600;Q9ULM6;Q9UIV1;Q9H9A5;Q9UKZ1 …, E240A;D40A); assay: EMSA; 1 uM protein, 100 nM RNA; EMSA: 20 mM Tris/HCl pH 7.5, 10 mM NaCl, 2 mM MgCl2, 0.1% BSA, 0.1% Orange G, 3% Ficoll 400; 100 nM RNA; 10% native PAGE in TBE pH 8.3; temperature not stated; conditions: protein: recombinant; tags: NOT1 N-His10 and C-StrepII x2; other tags removed; copies: 1;1;1;1;1;1;1;1; label: 5' 6-FAM
[2] = target: T1, CCR4-NOT FULL (CCR4a E240A:CAF1 D40A); assay: EMSA; 1 uM protein, 100 nM RNA; preferred; EMSA: 20 mM Tris/HCl pH 7.5, 10 mM NaCl, 2 mM MgCl2, 0.1% BSA, 0.1% Orange G, 3% Ficoll 400; 100 nM RNA; 10% native PAGE in TBE pH 8.3; temperature not stated; conditions: protein: recombinant; tags: NOT1 N-His10 and C-StrepII x2; other tags removed; copies: 1;1;1;1;1;1;1;1; label: labeled

Row | Binder | binding result [1] | binding result [2]
1 | CACAUCCAACUUCUCUAAAUAAAAAAAAAAAAAAAAAAAA (ssRNA) [13+7-mer-A20] | binds | 
2 | UUUUUUUUUUUUUUUUUUUUUUUUUUUUUU (ssRNA) [poly(U)30] |  | binds
3 | UCUAAAUAAAAAAAAAAAAAAAAAAAA (ssRNA) [7-mer-A20] | binds | 
